Laboratory results as given in publication PMC314469, “Protein Interaction Networks by Proteome Peptide Scanning” (PLoS Biology, 2004).

B1: YGR134W 1043-1056 (peptide)
chain: ELNLKLLNLFPSKP
B2: YLL040C 1996-2009 (peptide)
chain: EIELLVDSKDPNKP
B3: YHR190W 379-391 (peptide)
chain: EMYQDKLPPNVKP
B4: YNL086W 59-71 (peptide)
chain: EGQVLYDPEPFKP
B5: YLR081W 51-64 (peptide)
chain: EGSQSVPIEIPKKP
B6: YDR127W 1000-1013 (peptide)
chain: EETIVFLQSDPSRP
B7: YIR007W 368-380 (peptide)
chain: EIQNGKRPVLLKP
B8: YCL027W 384-396 (peptide)
chain: EKHELIIPTPSKP
B9: YKL155C 149-161 (peptide)
chain: ELQKRVGPDNFKP
B10: YIR007W 413-425 (peptide)
chain: ELFIIIQPPVMKP
B11: YJL196C 11-23 (peptide)
chain: EKASRFRPTIDRP
B12: YOR347C 67-80 (peptide)
chain: ENAVKSEQQFPGRP
B13: YHL022C 194-207 (peptide)
chain: EPKMQKQTIFPGKP
B14: YKL144C 179-191 (peptide)
chain: EGKNEETPQNEKP
B15: YOR208W 421-433 (peptide)
chain: EHSRVKLPHSPKP
B16: YER085C 144-156 (peptide)
chain: ENEFQVIPIRFKP
B17: YNL274C 336-348 (peptide)
chain: ELQNEDWPNESKP
B18: YER161C 148-160 (peptide)
chain: EPVTKERPHFNKP
B19: YPR016W-A 66-78 (peptide)
chain: EKTGNAHPLGFRP
B20: YCL061C 306-319 (peptide)
chain: EKARNVEYKKPQKP
B21: YGL061C 171-184 (peptide)
chain: ENRKGEKDAAPAKP
B22: YIL063C 22-35 (peptide)
chain: ENPIDKLDGTPKRP
B23: YBL101C 762-774 (peptide)
chain: EHAVANGPSHRRP
B24: YIL103W 218-230 (peptide)
chain: EHMLYIIPPQIKP
B25: YPR184W 920-932 (peptide)
chain: EGGAYIIPNFGKP
B26: YDL203C 183-196 (peptide)
chain: EKVYRTEEKAPIRP
B27: YHL038C 520-532 (peptide)
chain: EKFRVNRPIQLRP
B28: YMR027W 61-74 (peptide)
chain: EFRQEIIDRVPLRP
B29: YGR099W 548-560 (peptide)
chain: ELRGLDDPTIVKP
B30: YCL008C 154-167 (peptide)
chain: EPPQDQAPSLPPKP
B31: YJL010C 631-643 (peptide)
chain: EIFPNSKPLQPKP
B32: YJR122W 411-423 (peptide)
chain: ENEPTLNPFTNKP
B33: YOR217W 594-606 (peptide)
chain: ENYLSTRPSVLKP
B34: YMR086W 699-712 (peptide)
chain: EPASVYESNGPNKP
B35: YGR267C 9-21 (peptide)
chain: EIERHETPLNIRP
B36: YNR051C 181-193 (peptide)
chain: EKEKEKSPEISKP
B37: YBR237W 77-89 (peptide)
chain: EFRKSDEPVSVKP
B38: YKL010C 660-672 (peptide)
chain: EFTDMEIPDSVKP
B39: YCR088W 207-220 (peptide)
chain: ELKERDFDQAPLKP
B40: YDR227W 268-280 (peptide)
chain: EESKARSPGIAKP
B41: YLR285W 193-206 (peptide)
chain: EKGQALVVFSPHRP
B42: YOR116C 588-600 (peptide)
chain: EHFDIPPPAIMKP

Target: T1, Abp1 SH3 (ABP1_YEAST), P15891
T1 chain: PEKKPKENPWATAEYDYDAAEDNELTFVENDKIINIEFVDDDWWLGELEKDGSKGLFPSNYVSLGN
Experiment: SPOT array

| Binder | normalised SPOT signal, Boehringer light units (BLU); mean over the file's lines of this peptide |
| --- | --- |
| B1 | 164 |
| B2 | 126 |
| B3 | 143 |
| B4 | 128 |
| B5 | 132 |
| B6 | 50.7 |
| B7 | 248 |
| B8 | 140 |
| B9 | 130 |
| B10 | 98.8 |
| B11 | 910 |
| B12 | 80.3 |
| B13 | 619 |
| B14 | 126 |
| B15 | 395 |
| B16 | 127 |
| B17 | 24 |
| B18 | 534 |
| B19 | 124 |
| B20 | 80.9 |
| B21 | 87.1 |

| Binder | normalised SPOT signal, Boehringer light units (BLU); mean over the file's lines of this peptide |
| --- | --- |
| B22 | 21.5 |
| B23 | 97.9 |
| B24 | 96.5 |
| B25 | 4.8 |
| B26 | 38.6 |
| B27 | 1490 |
| B28 | 118 |
| B29 | 152 |
| B30 | 156 |
| B31 | 13.6 |
| B32 | 138 |
| B33 | 84.9 |
| B34 | 18.6 |
| B35 | 0 |
| B36 | 67.3 |
| B37 | 69.6 |
| B38 | 72.6 |
| B39 | 89.2 |
| B40 | 404 |
| B41 | 182 |
| B42 | 106 |
